Test: label from the status in PepcDB records
In the case of “MTQAFSRVRFIMTQPSHPGNVGSAARAIKTMGFGELVLVAPRFPDMTAQPEAVALASGALDVLERAAVHDTLEEALAPVTLAFALTTRVRDLGPPPCDIREAAGLARRHLDDTEAGVVAIVLGTERAGLTNAQIELCHRICHIPANPQYSSLNVAQALQLAAWELRYALLAGTGQSLLPASSAQQANPGAAPADGAAVQALLAHWEQALVAVGFLDPAHPKKLMPRMKHLLTRSALSRDEVDMLRGVCTAMIAPNRPK”, the protein production was “not failed”. With “MTQAKFVEGSILRHILVMSSTAAVGISALFVVDLLDIFFLSLLGEHELAAAVGYAGSISFFTTLIGIGLSIALGALVSRSIGAKDVELAKRLLLNSAVVTTLISVFVSIVVTTFIPELVTLVGASGHTAELAESYLYILVPSLPFICLAMALGGALRSVGDAKLSMMSTLAGGGVNAVLDPIFIFLFAMGIEGAALASVLARITVFVIAGRGVMVKHQLLGKFNRSDFKADLKPIFAIAGPAILTNIATPIGNAFVTRAIADFGDAYVAGWAVLGRLVPVTFGMIFALSGAIGPIVGQNFGAGRFDRVRESLTKAIQFCTLYVVVMSLLLFLLKSQIVSLFDMKGDSAALIEFFCSYIAVFFIFSGILFVANASFNNLGKAKYSTLFNVGKATLGTVPFVYVGAQLGGVYGVLIGQVIGSILFGVVGVWVAYRLVDKVVLTSTGHGVVSLATDADELMTDTVAPSATSPLSSSCAQMAQLTEEQEMEPVLPLIGQQDNSRR” the protein production was “failed”. With “MTQASRSEFRAELLSRIPRWYSPWGHLLFPAVAGLAIAAFALSRIEDLAAWQLAAVPAFLVFGNAVEWTAHRGMLHRRLRFAEVFYVRHTPQHHAVYVADDMAMRDWRELKLVLLPAYGVLAILAVTSPLTLAFLWLRQPNLAALWVASVVLYVLSYEWLHLAYHLPADRWLARTALVRTLRRHHQLHHAPHLMNRWNFNVTVPLWDWVRGTLYPAPAPGSRPAAQPTGAAGRAP” the protein production was “failed”. For “MTQHITRMRREIDEIPEAVQRLLDHGAQDVARVAAVLRLRDPSFVATVARGSSDHVCTYLSYAAELLLGLPVASLGPSVASVYDARLRLDRALCLAVSQSGKSPDIVAMTRNAGRDGALCVALTNDAASPLAGVSAHTIDIHAGPELSVAATKTFVTSAVAGLMLLADWAEDDGLRAALGNLPETLAAASRIDWPEMRVAIGARPSLFTLGRGTSLAVSNEAALKFKETCQLHAESYSSAEVLHGPVSIVEEGFPVLGFAAGDAAEAPLAEIADQIAAKGATVFATTGRVTRARVLEHVRSGHALTDPLSLIVSFYSMVEAFASERGIDPDAPRHLNKVTETV”, the protein production was “not failed”. In the case of “MTQKNVITEVFDIVFIFVLAFACVVIPTVLQGAVLVSWEEGGAGIGFVWDPVGFFSFLLVIVAFFAVILYHSVKHYRY”, the protein production was “failed”. In the case of “MTQMRMPTSPTRPATAWPLYALPSPGEAIRQFTPNWFAVTMGTGILSLVLGQLPWPVPGAALLGAGLWRCNVGLFVVFSALYLARWALYPHEARRILAHPTASMFLGTIPMGLATLINGLLLYGLPRWGAAVIPVATALWWMDAAMALACGVLVPYLMFTRQQHRMEQMTALWLLPVVAAEVAAASAGALAPHLADAGSRFGMLVAGYVLWAYSVPVALGILVILWLRMALHQLPQASMAASSWLALGPIGTGALGMLVFAGDAPALFAAHGMGTIGQAAAGCGLIAGLLLWGLGLWWLALAILITARYFADKVPFNLGWWGFTFPLGVYALATLKLGAALQMQVFDVVGSVLVLLLCVTWTIVAARTAAGAYRGTLFVAPCLVESSEHAPAR”, the protein production was “failed”. In the case of “MTQQNHLRGVLLASSACILWGISGVAASTLFINNPHLTAMWLTQVRMISAGLILLVWGMVAGKHPFKIWHHRHAAWTAVSYGLLGLIPVQLCYFEAVRVGNAPIATIIQFLGPFIISIYYFLFKHVTPSRIELIGMIMAFIGTLLIVTHGHLNSLAISPVILFWGGLSAIGVATNTLIPRTILPKYGALTVTGWGLLIAGLFLTLLQPMWRVHLTITWPQLGLLIVIILLGTVAPFLMFARSLSDILPTTASLMDAFEPLAATVFSITFLNVQLTSFDFIGGLLIILAVMALSLNTHKMLHFLRRRRAHSSS”, the protein production was “failed”. In the case of “MTQTNNPLHGITLETIITQLVEHYGWEELGARIKIRCFTEAPSIKSSLRFLRKTDWAREKVEYLYLKTNKLPLPAAKSIQAPAKEPSKKSAPKPNSKPTQTKVVTPTPAVEGQVNSHIWGKRDLEHHHHHH”, the protein production was “not failed”. With “MTQVYKAKFGTPNRGWVIIVHGLGEHSGRYSKLVSMLVNEGYAVYTFDWPGHGKSPGKRGHTSVEEAMEIIDFIIEEINDKPFLFGHSLGGLTVIRYAETRPEKIRGVIASSPALAKSPKTPSFMVALAKILGVLLPSLTLSNGIDPNLLSRNPDAVKRYIEDPLVHDRISAKLGRSIFKNMDLAHREAHKIKVPVLLLVGTGDVITPPEGARKLYGEIKVEDKEIVEFEGAYHEIFEDPEWGEEFHKKIVEWIKKH” the protein production was “failed”. For “MTRMQLHRLRYLLADVFGIVASYLSYNTLRYLTEEQERIYSTLSEYLFNAKSLWVGILYLLFWLSLFALSGYYNKPIAKSRISELLTTVASVLVGSVVVFLLLVVDDIVHDTALYLRLFFMMVATVLPWVYFPRLWVTTFGIKERKKTKGYHRVLLIGSGTIAEETASWLKSVNDMATTRLHFVPPTTREGFEQSLKSFATLVAEAVQESKPHQIILAVDCPDASFISLLLYQLYPFHMPVCVPMRSMLFAGAKVNVQGMKGEPMVDMTATNMSECAKSIKWFADRLFSLLMLILLIPVYAVIAVLVKRSSRGPVFFGQERIGLHGRPFTIYKFRTMYLDAEKDGPSLSFDGDSRVTPIGRILRKYRMDELPQFWNVLRGDMSFVGPRPERAFYIRQLVERAPYYYLLHNVRPGITSWGMVRYGYASTPDEMLERLQYDFLYYENMSLRLDIEVLLYTCQTIFKGLGK”, the protein production was “failed”. For “MTRQLLIVPIVKLKNLLTGRWLRYAFLSVAGNALIWGTSIQYLKVTKPTYTSEFALILSGASFGVNVNLPGIGQATSSSSSAIGSSTYDARANYEYIFTSEAVLKKAAAIAKIPEEQFSKPRIKLLDNSTIMQFEVTGKSPKEAQNKSLALYQAMVHQITVLRTGEINQRKDPTQKTLLSSQQKLERAQKHLSEYKLRSGLSFPDQIGNLSSNIEQLRRQRAEAKAQENATNQKLQQLAKNIGLSPQEAADAFLLRVDQIFQQNLKDYSEATTTLEILMTKYGPNHPQVVKERIRQEAALAALLERSQILLEKPMTTTILNRLALAVNGSGRDTLFQNLVTYQSDQKGLQSQVKTLDSEIQRLEKRLEILSQRQSKLENLKRDVQIAEAMFASTLTKLDLGQGDIFAAYPLVQMLVEPNLPDQPTAPKKSFILAGSAAGSIFSTLGLCLVWIRKPWIEKLSKWLS”, the protein production was “failed”. In the case of “MTRRGGRLRTVLTVLTAWSALAGAALAGAAPAGGAPRSVPLAPGVEYTQFDIPADRGVTHAHLLSVDLADPRVRVGLLHPGAVAARAPVSRLADSQGALAGINGDFFNITETQHPGVEATGSTDGPAIADGHTLKAAVPNGQRFGPALPPGTTTEDVLGVGDDRRARLDRLALEGSVDTAAGELPLRGLNQYALPEGSVGAYTADWGSVSRARAVCGTDTDRAAPCSTDTYEVTVRDGQVVSFADSPGSGPIAAGTTVLVGREAGAQQLRKLSTGEEVSVEHRLVAAGSQVAYSFAIGGYPVLRQGKPLPGLDTVTSAVRTAVGIKDAGRRLLLLAIDGAAAYRSGLTIAEVASVMRGLGATEAFSLDGGGSTTLVARAPGATSVTVRNHPSGGAERPVPNGIGVFTRT”, the protein production was “failed”. For “MTRTLTTPLPTAPRAKPARRPTTLLFAYGATLNPEHIMVRLCQPKIRAIARLPDYRLGFHGHSEVWDSGLETLVDEPGAEAWGVLYELSATELDRFDAWQGVKLDGGGSYFHYPVEVIDENGQLLDALFHRKTEMGPQQPASRDYLDFILAGARARGLPARAIAVLEACTAVQARYPVPKMNTDIKALASKLSCAC”, the protein production was “failed”. With “MTRTPLTLEQLNALSDDAFTEHFAGVLEHSPHYARRAAAGRPFADVEEVAAAFARAVAADEPGAQVQLIRAHPDLAGKAALAGELTAESASEQTSAGLDRLSPEEYAEFQRLNAAYHERFGLPYVVCVRENTKDTIFEGARRRLTHTQEEEQAAALHEIGRIARLRILDLVQEGRQEKRMDGRLIRIPLEHHHHHH” the protein production was “failed”. For “MTRVPFTQNYRWHLPLLLLVFCCSFFINNGAIFADIMESRNIITAREMVYDHNWLVPTMNGELRLEKPPLPTWIAAITEMISPDNLPLQRAMAGFAAVMLVLFFYKFATKLTDNRTYALVSSLVLCTSYNIILMGRTATWDIYCHAFMIGAIYYLYLALRQNTCKWTYFIGAGIFMGLSFLGKGPVSFYALLLPFVCAYILYYRKETQMKGKWIALAVMILIGIVLSTWWYAYIYIYHQEMASYVFHKESSSWSNHNVRSWYYYWQFFLETGVWSLLTLTTLLVPFWKKRVESSKEYLFCLSWMLLILFFLSLLPEKKTRYLLPILLPAALTMGHLFVYWIRQAKQKMPQLKDRVLYRINAYLIVVAALALPIALYLFMYREGRMGTGMFVWLVVLFLTVAVWLFRSAFKLQPFSFLMGIVALFAVAELFVMPYIGSFVSNSDPKSISATRENPELQPLPFYHSKDEVLRIELVYEAHKKIGDMDLSNKEEIIKALPFVLISQKPAELLIPDSIRKDLNLRFIDCYDNNRWAKGHKRYDSVFISNVTIVEPIKEQ”, the protein production was “failed”. With “MTRYLRLSGLEPFVLTPDIPFVNVGERTNVTGSARFRKLITNRDYAAALEVARDQVQNGAQILDVNMDEGLIDSKAAMVEFLNLIASEPDIARVPLMIDSSKWEVIEAGLKCVQGKPVVNSISLKEGEESFRRQAGLCLAYGAAVVVMAFDEEGQADSFARKTTICARAYRILVEEVGFPPEDIIFDPNVFAVATGIEEHDNYGVDFIEAARWIRANLPHAHVSGGVSNLSFSFRGNEPVREAMHAVFLYHAIRAGMDMGIVNAGQLAVYDQIDPDLREACEDVVLNRKPKQGGTATERLLALAER” the protein production was “failed”. In the case of “MTSAFNAYTALALAIVSEVIASAFLQQSAQFTRPWPTLAMVLFYVASFYALSVAIRVIPLSIAYAIWGGVGIILTATVSFVLFRQMLDAAAFVGIGLIVSGVVIINLFSETTVH”, the protein production was “failed”. With “MTSALNRLQPLNGNNMKLKTLLLFVALIQSVVSMAQQDWKGDYTRAKQVYQLQKYEIAMEYFLPVTSPDAANPYASYAQYYYSLSAYKAGKYNEARQMLLQLINRDPNWKQISEAHYLLAGVYFELKQYRFGMTSLTFVQGMESSVTTFRQSYYAKIAPLDTLIKLQRVYSSDKELAKALFNQLAAYPVNSKNNMLYEYLAQEFKFTKLNRTVTYVTKTEYHVAVILPFNLSESNSENYKSGYAYEMYQGILTAVDSLKEDGVTIKIHTYDADRDVMKIQAILNYPEMKGMDLIIGPLFPSLIPYVTNFGELNNIPVINPISFNSNIIENKTQTLLFQPTLESIAGQVSSFAKEKFVYRKNSSKDNDLKPKNNVLIFYSTELKDSLLAVYYRDSLQVKGFKVSKFVKVTKENIGTVGKIFSDSISLLTTSHVFVASGEPVLASNIVSALEISRQNVPVITKSDWLDINNQTYEQFERRNIYIIYPDYFAFYTDAYRSFKAAYIKKYNVYPSKYTIIGYELMSLVGDKMRTAGTGYFNLMRTSPVSKGHFTAGYDFSKKPCNNYVPIYYFSDLKLTLANPFDEK” the protein production was “failed”. In the case of “MTSFDWFFVAAYLILSFGIALYFYQRAGEDTSEFFLSGRAMPWWLAGTSMVATTFAVDTPLLVTEIVAQNGIAGNWLWWNAAIGGMLTVFFFARLWRRSGVMTDVEFVEFRYSGRVAAWLRGLKALFFGLLLNILIIGWVSLAMETVIDRLFPDLTLFGQAAFSVLGREMSAALVVTGGLILLVSVYALLSGLWGVMVTDLFQFVVAMGGTIALAVLVLDMPEIGGVAGLREQLPDETFNLLPTIGGAAEGAATFSLSALAFAAYAGVQWWASWYPGAEPGGGGYIAQRMMSAKDEPNALFATLWYTIAHFCLRPWPWIIVALAALVLYPDLDEPRAGFVLVMKDVLPPGLLGLLFASFLAAFMSTVSTQLNWGVSYLVNDFWGRFVRPDADEAHYVRVSRVLTFGVALLSLVVTLFLDTIAEAWGLLLSASAGLGLVLILRWYWWRVNAWSEMAATLAPIGLTVAALVLNVFGVQVPGLQADFPLNLYSVVGFTTVVWLAATFLTRPTDAETLDAFYRTVHPGGPGWTPVAERHPDVTPDSGLGRLALDWLVGVVLVYSTLFGTGYLILGWTLWGAGCIAVALTAAAYLWRDLQRDEISLIEMKEEKDATEER”, the protein production was “failed”.
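Note: failed if final PepcDB status was selected cloned or expressed and not failed if soluble or beyond.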
